Target: the molecule itself
Test: SAXS; nucleotide-free KaiC monomer (1.69 mg/ml) mixed with P-buffer containing ATP to 1 mM final; curve taken at 30°C 6 min after addition of ATP; monomer to hexamer

B1: KaiC (natural protein, UniProt Q79PF4 1-519, looked up)
chain: MTSAEMTSPNNNSEHQAIAKMRTMIEGFDDISHGGLPIGRSTLVSGTSGTGKTLFSIQFLYNGIIEFDEPGVFVTFEETPQDIIKNARSFGWDLAKLVDEGKLFILDASPDPEGQEVVGGFDLSALIERINYAIQKYRARRVSIDSVTSVFQQYDASSVVRRELFRLVARLKQIGATTVMTTERIEEYGPIARYGVEEFVSDNVVILRNVLEGERRRRTLEILKLRGTSHMKGEYPFTITDHGINIFPLGAMRLTQRSSNVRVSSGVVRLDEMCGGGFFKDSIILATGATGTGKTLLVSRFVENACANKERAILFAYEESRAQLLRNAYSWGMDFEEMERQNLLKIVCAYPESAGLEDHLQIIKSEINDFKPARIAIDSLSALARGVSNNAFRQFVIGVTGYAKQEEITGLFTNTSDQFMGAHSITDSHISTITDTIILLQYVEIRGEMSRAINVFKMRGSWHDKAIREFMISDKGPDIKDSFRNFERIISGSPTRITVDEKSELSRIVRGVQEKGPES
- stoichiometry N: 6.05 ± 0.08 fold

Source: publication PMC4736791 (Biophysics, 2015)
